In patent publication US20220112276A1 (Janssen / Centocor, published 2022):
Substitutions are numbered along the chain they refer to. One block for each binder: values may come before it.

Columns and labels:
Assay in all cases: SPR, VHH captured by anti-Fc, ECD analyte
[1] = target: T1, rat pIgR extracellular domain (rat, UniProt P15083 19-643)
T1 construct: extracellular domain
T1 sequence (looked up): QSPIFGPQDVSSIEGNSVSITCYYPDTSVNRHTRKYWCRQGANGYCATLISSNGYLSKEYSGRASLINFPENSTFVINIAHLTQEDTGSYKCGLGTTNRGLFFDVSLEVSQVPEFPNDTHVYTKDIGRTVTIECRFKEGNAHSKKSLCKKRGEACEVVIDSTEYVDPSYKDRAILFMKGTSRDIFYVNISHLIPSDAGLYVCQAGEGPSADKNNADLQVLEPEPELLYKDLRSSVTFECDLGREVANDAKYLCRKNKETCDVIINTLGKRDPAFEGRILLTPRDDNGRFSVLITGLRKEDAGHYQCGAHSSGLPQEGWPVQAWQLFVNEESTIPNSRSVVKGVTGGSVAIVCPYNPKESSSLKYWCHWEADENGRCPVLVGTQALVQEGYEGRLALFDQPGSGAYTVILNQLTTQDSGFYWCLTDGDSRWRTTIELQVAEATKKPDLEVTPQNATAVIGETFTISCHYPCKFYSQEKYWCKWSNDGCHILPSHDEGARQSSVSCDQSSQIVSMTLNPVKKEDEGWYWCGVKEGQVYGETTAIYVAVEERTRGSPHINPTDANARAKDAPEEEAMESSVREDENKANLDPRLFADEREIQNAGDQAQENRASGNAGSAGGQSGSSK
Method in brief: (§1)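 Single-cycle kinetics: ECD analyte from 30 nM, 3-fold series, low to high, with 30 min off-rate monitoring, over VHH captured at 0.5 ug/ml (~200-300 RU). HBSP plus 100 ug/ml BSA at 30 μL/min. Reference cell and buffer blank subtracted; global 1:1 Langmuir fit gave kon, koff, KD.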

[2] = target: T2, mouse pIgR extracellular domain (ECD) (mouse, UniProt O70570 19-645)
T2 construct: Bought from R&D Systems (Cat 2800-PG-050); also called mpIgR ECD
T2 sequence: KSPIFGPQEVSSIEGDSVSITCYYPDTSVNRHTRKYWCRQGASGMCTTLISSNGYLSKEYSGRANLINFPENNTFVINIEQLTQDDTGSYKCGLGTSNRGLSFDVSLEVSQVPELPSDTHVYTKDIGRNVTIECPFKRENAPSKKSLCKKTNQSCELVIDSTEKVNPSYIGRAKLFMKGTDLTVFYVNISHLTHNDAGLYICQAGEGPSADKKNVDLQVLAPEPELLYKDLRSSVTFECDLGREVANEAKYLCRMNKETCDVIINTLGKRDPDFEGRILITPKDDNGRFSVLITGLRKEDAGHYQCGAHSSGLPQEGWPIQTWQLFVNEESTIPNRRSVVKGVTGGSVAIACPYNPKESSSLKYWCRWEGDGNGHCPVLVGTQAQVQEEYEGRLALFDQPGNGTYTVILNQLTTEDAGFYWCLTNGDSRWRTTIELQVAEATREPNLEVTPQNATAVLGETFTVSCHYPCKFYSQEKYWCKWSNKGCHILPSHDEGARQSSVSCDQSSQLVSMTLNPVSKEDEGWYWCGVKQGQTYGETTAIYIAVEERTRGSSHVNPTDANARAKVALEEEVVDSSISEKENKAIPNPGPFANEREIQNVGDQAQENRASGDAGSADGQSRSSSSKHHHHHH
Method in brief: as §1

[3] = target: T3, human pIgR extracellular domain (ECD) (human, UniProt P01833 19-638)
T3 construct: Bought from R&D Systems (Cat 2717-PG-050); also called hpIgR ECD
T3 sequence (P01833 other isoform, or with tags, fused parts or gaps): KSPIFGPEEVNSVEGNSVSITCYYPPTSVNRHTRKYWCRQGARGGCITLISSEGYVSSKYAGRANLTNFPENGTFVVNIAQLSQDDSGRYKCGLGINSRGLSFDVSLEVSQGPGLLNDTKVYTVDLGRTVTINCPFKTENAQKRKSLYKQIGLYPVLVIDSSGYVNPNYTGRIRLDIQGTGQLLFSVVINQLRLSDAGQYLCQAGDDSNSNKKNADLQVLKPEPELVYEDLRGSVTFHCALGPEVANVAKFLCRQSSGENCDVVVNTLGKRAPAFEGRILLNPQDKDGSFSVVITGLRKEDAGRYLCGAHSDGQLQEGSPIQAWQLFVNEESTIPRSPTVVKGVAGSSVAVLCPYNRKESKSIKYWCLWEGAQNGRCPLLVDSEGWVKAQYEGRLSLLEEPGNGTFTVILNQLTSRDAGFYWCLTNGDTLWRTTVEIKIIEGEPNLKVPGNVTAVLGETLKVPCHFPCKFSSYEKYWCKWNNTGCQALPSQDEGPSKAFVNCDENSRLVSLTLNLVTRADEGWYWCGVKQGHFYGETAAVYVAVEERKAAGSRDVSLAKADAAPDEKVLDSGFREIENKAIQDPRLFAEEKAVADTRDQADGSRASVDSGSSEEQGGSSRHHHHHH
Method in brief: as §1

[4] = target: T4, cynomolgus monkey pIgR extracellular domain (cynomolgus monkey, UniProt A0A2K5WMU9 19-638)
T4 construct: extracellular domain
T4 sequence (A0A2K5WMU9 entry or part of it): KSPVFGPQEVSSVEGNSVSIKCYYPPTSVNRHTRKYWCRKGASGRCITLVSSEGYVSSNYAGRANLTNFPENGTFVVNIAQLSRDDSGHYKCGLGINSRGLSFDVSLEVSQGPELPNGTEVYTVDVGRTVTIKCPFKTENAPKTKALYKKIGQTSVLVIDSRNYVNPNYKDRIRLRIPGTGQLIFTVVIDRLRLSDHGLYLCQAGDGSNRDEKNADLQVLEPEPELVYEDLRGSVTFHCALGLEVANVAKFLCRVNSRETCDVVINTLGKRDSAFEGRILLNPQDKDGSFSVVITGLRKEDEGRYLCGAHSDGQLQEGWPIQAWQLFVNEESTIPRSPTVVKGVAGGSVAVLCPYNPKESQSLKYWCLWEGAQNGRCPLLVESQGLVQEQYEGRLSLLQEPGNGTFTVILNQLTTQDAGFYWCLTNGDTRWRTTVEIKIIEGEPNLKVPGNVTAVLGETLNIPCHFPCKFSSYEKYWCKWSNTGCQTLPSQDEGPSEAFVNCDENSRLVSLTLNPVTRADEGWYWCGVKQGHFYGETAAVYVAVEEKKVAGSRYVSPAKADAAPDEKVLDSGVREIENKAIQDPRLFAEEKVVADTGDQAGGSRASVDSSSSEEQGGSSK
Method in brief: as §1

B1: 01F12R2 VHH Mono-Fc (Fc fusion)
chain: EVQLVESGGGLVQPGGSLRLSCAASGRTFSSYTMGWFRQAPGEEREFVSAISWSSDGTYYKYYTDTVKGRFTISRDNAETTVHLQMNSLKPEDTAVYYCAASSSGTYGDPRSEREYRYWGQGTLVTVSSSPAPELLGGPSVFLFPPKPKDTLMISRTPEVTCVVVDVSHEDPEVKFNWYVDGVEVHNAKTKPREEQYNSTYRVVSVLTVLHQDWLNGKEYKCKVSNKALPAPIEKTISKAKGQPREPQVYTKPPSREEMTKNQVSLSCLVKGFYPSDIAVEWESNGQPENNYKTTVPVLDSDGSFRLASYLTVDKSRWQQGNVFSCSVMHEALHNHYTQKSLSLSPGK
Kd [1]: 4.2 nM
Kd [2]: 264 nM
Kd [3]: 12.5 nM
Kd [4]: 3.17 nM

B3: 01F09R3 VHH Mono-Fc (Fc fusion)
chain: QVQLVESGGGLAQAGGSLTLSCAASGTAAGIDVMGWYRQTPGNSREFVARIFSNDVTHYADSVTGRFTLSRTQDKNTVSLQMNSLKPDDTGVYYCNARIWTGSTTVDYWGQGTQVTVSSSPAPELLGGPSVFLFPPKPKDTLMISRTPEVTCVVVDVSHEDPEVKFNWYVDGVEVHNAKTKPREEQYNSTYRVVSVLTVLHQDWLNGKEYKCKVSNKALPAPIEKTISKAKGQPREPQVYTKPPSREEMTKNQVSLSCLVKGFYPSDIAVEWESNGQPENNYKTTVPVLDSDGSFRLASYLTVDKSRWQQGNVFSCSVMHEALHNHYTQKSLSLSPGK
Kd [1]: 70.8 nM
Kd [2]: 985 nM
Kd [3]: 0.397 nM
Kd [4]: 566 nM

B4: 01C03R3 VHH Mono-Fc (Fc fusion)
chain: QVQLVESGGGLVQAGGSLRLSCAASGRTFSSYAMGWFRQAPGKEREFVAAIHWNGASTYRYSADSVKGRFTISRDNAKNTVYLQMNSLKPEDTAAYYCAASPPPTVGDVRDPANYDSWGQGTLVTVSSSPAPELLGGPSVFLFPPKPKDTLMISRTPEVTCVVVDVSHEDPEVKFNWYVDGVEVHNAKTKPREEQYNSTYRVVSVLTVLHQDWLNGKEYKCKVSNKALPAPIEKTISKAKGQPREPQVYTKPPSREEMTKNQVSLSCLVKGFYPSDIAVEWESNGQPENNYKTTVPVLDSDGSFRLASYLTVDKSRWQQGNVFSCSVMHEALHNHYTQKSLSLSPGK
Kd [1]: 15.2 nM
Kd [2]: 25.6 nM
Kd [3]: 13.3 nM
Kd [4]: 22.2 nM

B6: 01G07R2L VHH Mono-Fc (Fc fusion)
chain: QVQLVESGGGLVQPGGSLRLSCVASGLPFSSSRMAWFAQAPGKEREFVAAIGWRGRTSYKYYADSVKGRFTVSGDNAKKTLDLQMKDLKPEDTALYFCAAHPNDDGDPRISGNYQYWGQGTQVTVSSSPAPELLGGPSVFLFPPKPKDTLMISRTPEVTCVVVDVSHEDPEVKFNWYVDGVEVHNAKTKPREEQYNSTYRVVSVLTVLHQDWLNGKEYKCKVSNKALPAPIEKTISKAKGQPREPQVYTKPPSREEMTKNQVSLSCLVKGFYPSDIAVEWESNGQPENNYKTTVPVLDSDGSFRLASYLTVDKSRWQQGNVFSCSVMHEALHNHYTQKSLSLSPGK
Kd [1]: 1.44 nM
Kd [2]: 0.948 nM
Kd [3]: 3.32 nM
Kd [4]: 4.02 nM

B8: 01B02R2L VHH Mono-Fc (Fc fusion)
chain: EVQLVESGGGLVQAGGSLKLACAASGLTFSSYRMGWFRQAPGKEREFVAAIDWNGRGTYYRYYADSVKGRFTISRDNAKNTMCLQMNSLKPEDTAVYYSAIDSRTSIDPRTSGHYRYWGQGTLVTVSSSPAPELLGGPSVFLFPPKPKDTLMISRTPEVTCVVVDVSHEDPEVKFNWYVDGVEVHNAKTKPREEQYNSTYRVVSVLTVLHQDWLNGKEYKCKVSNKALPAPIEKTISKAKGQPREPQVYTKPPSREEMTKNQVSLSCLVKGFYPSDIAVEWESNGQPENNYKTTVPVLDSDGSFRLASYLTVDKSRWQQGNVFSCSVMHEALHNHYTQKSLSLSPGK
Kd [1]: 13.4 nM
Kd [2]: 4.47 nM
Kd [3]: 20.2 nM
Kd [4]: 14.2 nM

B10: 01H10R3 VHH Mono-Fc (Fc fusion)
chain: QVQLVESGGGLVQAGGSLRLSCAASGRAFSQYTMGWFRQAPGKEREFVTAIRWSGGSIYKYYADSVKGRFTISGDNARNTVDLQMNSLKPEDTAVYYCAARMSPWGDPRGNEYDYWGQGTLVTVSSSPAPELLGGPSVFLFPPKPKDTLMISRTPEVTCVVVDVSHEDPEVKFNWYVDGVEVHNAKTKPREEQYNSTYRVVSVLTVLHQDWLNGKEYKCKVSNKALPAPIEKTISKAKGQPREPQVYTKPPSREEMTKNQVSLSCLVKGFYPSDIAVEWESNGQPENNYKTTVPVLDSDGSFRLASYLTVDKSRWQQGNVFSCSVMHEALHNHYTQKSLSLSPGK
Kd [1]: 11.4 nM
Kd [2]: 47.1 nM
Kd [3]: 34 nM
Kd [4]: 94.6 nM

The remaining binders from weak to strong by Kd [1], led by results:

Kd [1]: 3.02 nM
Kd [2]: 0.8 nM
Kd [3]: 4.87 nM
Kd [4]: 2.84 nM
B7: 01C03R3LS VHH Mono-Fc (Fc fusion)
chain: B6 chain with Q1E, F29G, G52A, A63S, K79R, K89N

Kd [1]: 2.4 nM
Kd [2]: 3.45 nM
Kd [3]: 5.95 nM
Kd [4]: 2.92 nM
B9: 01H10R2 VHH Mono-Fc (Fc fusion)
chain: QVQLVESGGGLVQPGGSLRLSCAASGRTSSISTMGWFRQAPGKEREFVTAIRWSGSSSYKYYADSVKGRFTISRDNARNTVYLQMNSLKPEDTAVYYCAAQMSLWRDPREIDYDYWGQGTLVTVSSSPAPELLGGPSVFLFPPKPKDTLMISRTPEVTCVVVDVSHEDPEVKFNWYVDGVEVHNAKTKPREEQYNSTYRVVSVLTVLHQDWLNGKEYKCKVSNKALPAPIEKTISKAKGQPREPQVYTKPPSREEMTKNQVSLSCLVKGFYPSDIAVEWESNGQPENNYKTTVPVLDSDGSFRLASYLTVDKSRWQQGNVFSCSVMHEALHNHYTQKSLSLSPGK

Kd [1]: 1.36 nM
Kd [2]: 3.76 nM
Kd [3]: 5.37 nM
Kd [4]: 3.97 nM
B5: 01E04R3LS VHH Mono-Fc (Fc fusion)
chain: EVQLVESGGGLVQAGDSLRLSCAASGRTFTTYVMGWFRQAPGKDREFVATITWSGSTNYKYYADPVKGRFTISRDNAKNTVYLQMNSLKPEDTAVYYCTSSTVVTDPRKLNEYAYWGQGTLVTVSSSPAPELLGGPSVFLFPPKPKDTLMISRTPEVTCVVVDVSHEDPEVKFNWYVDGVEVHNAKTKPREEQYNSTYRVVSVLTVLHQDWLNGKEYKCKVSNKALPAPIEKTISKAKGQPREPQVYTKPPSREEMTKNQVSLSCLVKGFYPSDIAVEWESNGQPENNYKTTVPVLDSDGSFRLASYLTVDKSRWQQGNVFSCSVMHEALHNHYTQKSLSLSPGK

Kd [1]: 1.34 nM
Kd [2]: 14 nM
Kd [3]: 1.31 nM
Kd [4]: 4.93 nM
B11: 01A01R3 VHH Mono-Fc (Fc fusion)
chain: EVQLVESGGGLVQAGGSLRLSCAASGSGRTFTSYTMGWFRQAPGKEREFVSALTWADDSTYYKYYADSMKGRLTISRDNAKNTVYLQMNSLKPEDTAVYYCVATGRGLTYDPRDRRKYDYWGQGTQVTVSSSPAPELLGGPSVFLFPPKPKDTLMISRTPEVTCVVVDVSHEDPEVKFNWYVDGVEVHNAKTKPREEQYNSTYRVVSVLTVLHQDWLNGKEYKCKVSNKALPAPIEKTISKAKGQPREPQVYTKPPSREEMTKNQVSLSCLVKGFYPSDIAVEWESNGQPENNYKTTVPVLDSDGSFRLASYLTVDKSRWQQGNVFSCSVMHEALHNHYTQKSLSLSPGK

Kd [1]: 1.24 nM
Kd [2]: 1.41 nM
Kd [3]: 0.2 nM
Kd [4]: 10.7 nM
B2: 01A07R3 VHH Mono-Fc (Fc fusion)
chain: EVQLVESGGGLVQTGESLRLSCAASGRAFSDLRMAWFRQVPGKEREFVAAVEWRGSSRYYYSADSVKGRFTISRTSPKGETYLQMNGLKPEDTAVYYCAAVSPVVGDPRNSDTYNYWGQGTQVTVSSSPAPELLGGPSVFLFPPKPKDTLMISRTPEVTCVVVDVSHEDPEVKFNWYVDGVEVHNAKTKPREEQYNSTYRVVSVLTVLHQDWLNGKEYKCKVSNKALPAPIEKTISKAKGQPREPQVYTKPPSREEMTKNQVSLSCLVKGFYPSDIAVEWESNGQPENNYKTTVPVLDSDGSFRLASYLTVDKSRWQQGNVFSCSVMHEALHNHYTQKSLSLSPGK
